Test results published in the supplement of paper PMC10567573.

B1: BTBD1 (parent)
chain: TSAEIELPDVEPAAFLALLRFLYS

Variants of: B1
Test: protein stability index of a GFP-peptide fusion (GPS, HEK-293T) (PSI 1-6); higher = more stable
Details: c terminus: a fixed tail appended
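Also: lentivirally expressed fusions sorted by FACS into six bins by GFP to DsRed ratio, PSI derived from sequencing read proportions per bin multiplied by bin number.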

Protein stability index: each site, then its substitutions
L7: G 1.89, Q 1.96, W 2.02, K 2.31, I 1.93, Y 2.05, E 1.63, M 2.08, N 1.9, S 1.79, D 2.15, V 1.98, C 1.75, T 1.75
P12: Q 1.19, D 1.47, F 1.84, W 1.8, N 1.95, T 1.41, Y 2.22, S 2.46, L 1.67, A 1.29, C 2.3, V 2.46
P8: A 1.97, L 1.26, K 1.46, M 1.9, W 1.53, F 2.23, R 1.93, S 2.06, G 1.96, E 2.17, Y 2.37, C 1.49, V 2.48, D 1.95, Q 1.76, N 1.92
E4: V 1.55, M 1.55, T 1.73, H 1.56, L 1.91, W 1.88, N 1.44, Q 2.14, A 1.84, S 1.45, Y 1.68, G 2.07, P 1.64, D 1.66, C 1.8, I 2.07
E11: Y 2.14, A 1.84, C 1.1, D 1.69, T 2.4, F 1.68, H 1.91, V 1.52, S 1.73, L 1.88, M 1.32, I 2.38
R20: V 3.16, P 2.01, E 1.77, Y 2.09, F 2, G 2.67, L 3.18, W 3.4, A 2.08, M 2.54, S 1.93, H 1.79
A14: L 1.4, P 2.05, Q 1.77, M 1.47, N 1.92, S 2.41, H 2.04, G 2.04, R 1.87, D 2, W 2.2, T 1.8
A13: F 1.55, R 1.73, M 2.02, Y 1.59, W 2.18, K 2.43, N 2.5, T 2.17, V 2.02, E 1.85, L 1.81, P 2.05, Q 1.76, S 2.01
S2: D 1.61, V 1.87, M 1.7, L 1.99, P 2.33, F 2, Y 2.28, N 1.49, A 1.72, E 1.65, Q 2.24, C 2.05, T 1.74, R 2.09, G 2.15
E6: W 1.85, F 1.64, T 2.1, G 1.75, A 2.19, S 2.49, I 2.82, C 2.3, K 2.13, L 1.73, P 2.31, D 2.07, H 1.78, M 2.22, Q 2.01, V 1.67
L18: C 1.77, Y 1.59, H 2.55, F 1.73, A 1.08, G 1.86, Q 1.83, P 2.11, W 2.2, T 1.77, K 1.95, D 2.64
A17: D 1.89, H 1.67, E 2.12, N 2.06, T 2.38, V 1.99, I 1.4, K 1.88, F 1.98, G 2.27, R 2.42, M 1.62, W 2, Q 1.61, Y 1.98, L 2.04
